Data reported in the supplement of paper PMC9732359.
± gives the uncertainty stated by the source.

Experiment: protein stability index of a GFP-peptide fusion (yeast GPS) (PSI 1-4); higher = more stable; sorted into four equal gates, so the index is relative within each strain
Summary of the method: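 The protein stability index of a peptide was calculated by multiplying its read frequency in each gate by that gate's number and adding the products. The peptides were tiled 17-residue stretches of yeast proteins, fused downstream of GFP on a Cherry-expressing plasmid and carried in yeast as a pooled library. Mid-log cultures in leucine-free medium were sorted into four equal gates by GFP/Cherry ratio, and each gate's plasmids were PCR-amplified and Illumina-sequenced.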

Row | Sequence | protein stability index (doa10∆) | protein stability index (pdr5∆) | protein stability index (san1∆) | protein stability index (ubr1∆)
1 | FEGTDDNEEASVKLDLQ [BRN1] | 3.2 ± 0.17 | 3.65 ± 0.11 | 3.49 ± 0.096 | 3.35 ± 0.098
2 | NRPDNKNAQYHLLVKQG [RPN7] | 2.86 ± 0.056 | 2.58 ± 0.053 | 2.79 ± 0.05 | 2.78 ± 0.036
3 | SQASSDLGETFRGIIRS [CSL4] | 3.17 ± 0.14 | 2.96 ± 0.081 | 3.3 ± 0.096 | 3.24 ± 0.073
4 | TPFSFGTANNNSNTTNQ [YJL041W/NSP1] | 3.25 ± 0.054 | 3.21 ± 0.045 | 3.13 ± 0.035 | 3.09 ± 0.041
5 | SVLSSKPGSKPEKTSTE [SIR3] | 3.17 ± 0.12 | 2.7 ± 0.19 | 3.15 ± 0.078 | 3.2 ± 0.12
6 | ITFLIEKAKEMIRLLGS [ECM29] | 2.6 ± 0.12 | 2.26 ± 0.1 | 2.9 ± 0.11 | 1.7 ± 0.12
7 | SMCGFEVRILPRQRMEE [PRP8] | 2.29 ± 0.057 | 1.87 ± 0.053 | 2.23 ± 0.063 | 2.24 ± 0.049
8 | ITMPATNGKPDMAILER [ARP7] | 3.17 ± 0.059 | 3.08 ± 0.059 | 3.06 ± 0.041 | 3.18 ± 0.042
9 | RSLVREIAGLSPYERRL [RPL36A] | 2.86 ± 0.13 | 3.5 ± 0.2 | 2.78 ± 0.12 | 2.82 ± 0.11
10 | IDKLMLSPSDQFAPAFL [SSN2] | 1.99 ± 0.068 | 2.24 ± 0.1 | 2.1 ± 0.13 | 2.5 ± 0.09
11 | KIHQQLLFKARLQQQQA [GAL11] | 1.3 ± 0.088 | 1.26 ± 0.089 | 1.25 ± 0.15 | 1.33 ± 0.069
12 | SEHDKKRLSAALSKFLT [YML103C/NUP188] | 2.99 ± 0.09 | 3.08 ± 0.09 | 3.06 ± 0.068 | 3.13 ± 0.071
13 | ERHQAGKNQWFFSKLRF [RPL27A] | 3.19 ± 0.091 | 3.24 ± 0.092 | 3.09 ± 0.075 | 3.18 ± 0.046
14 | HLIKCFFKITLQRASSK [ITC1] | 1.38 ± 0.073 | 1.19 ± 0.047 | 1.18 ± 0.12 | 1.08 ± 0.051
15 | GLIYSFNEENGEDSTKP [POP1] | 3.25 ± 0.098 | 3.21 ± 0.18 | 2.86 ± 0.26 | 3.1 ± 0.17
16 | SREIAQPSSSRYNGGND [SMB1] | 3.19 ± 0.087 | 3.22 ± 0.071 | 3.22 ± 0.053 | 3.31 ± 0.055
17 | KPLGTTRAMEYLKFREL [RPB2] | 2.49 ± 0.065 | 2.86 ± 0.077 | 3.13 ± 0.068 | 2.9 ± 0.056
18 | TAVKQGVTSLGIKATNG [PRE8] | 2.41 ± 0.065 | 2.06 ± 0.055 | 1.87 ± 0.072 | 1.71 ± 0.083
19 | MEDKISEFLNVPFESLQ [YIL149C/MLP2] | 3.18 ± 0.09 | 3.35 ± 0.079 | 3.33 ± 0.067 | 3.06 ± 0.057
20 | LASIPDIFITPTPVVTI [SSN2] | 1.71 ± 0.054 | 1.65 ± 0.054 | 1.45 ± 0.098 | 1.63 ± 0.044
21 | TPLKARQREMAEEQTKL [YLR018C/POM34] | 3.33 ± 0.08 | 3.36 ± 0.093 | 3.31 ± 0.053 | 3.41 ± 0.056
22 | AMSTVTLGVVGKSEKLS [SKI6] | 2.81 ± 0.079 | 3.19 ± 0.081 | 2.75 ± 0.099 | 2.93 ± 0.073
23 | GGLSGEESIKIYPLIKP [UBP6] | 2.48 ± 0.12 | 2.68 ± 0.076 | 1.88 ± 0.15 | 2.16 ± 0.09
24 | TTPEINNFIVERVQSDE [SRP68] | 3.18 ± 0.15 | 3.38 ± 0.14 | 3.37 ± 0.097 | 2.88 ± 0.13
25 | TDAMTESQPKQTGTRRN [MCD1] | 3.04 ± 0.12 | 3.35 ± 0.12 | 3.2 ± 0.068 | 3.09 ± 0.061
26 | HTGKKLMAQIFFGPTYY [RPB2] | 2.64 ± 0.055 | 2.07 ± 0.043 | 1.97 ± 0.057 | 1.81 ± 0.029
